This note sets out measurements from US20250188136A1, “AV3 MUTANT POLYPEPTIDES FOR PEST CONTROL” (Vestaron Corporation, priority 2021, published 2025).

Entries after “also recorded” stand apart in the source; their conditions may differ. Ends that are not written are not given here.

One series in a line: Proteolytic resistance of Av3b mutants during production-strain fermentation (rpHPLC). It is filed as physicochemical. To be noted: mutant strain fermentation at pH 6.5, 140 hours, rpHPLC. As to the method: The mutants in the table below were evaluated for stability in fermentation beer. Fermentation conditions and HPLC analysis were performed as described above. The mutant production strains were generated using YCT306 K. lactis strain. The production of mutants was performed as described in Example 2; fermentation conditions were performed using the same fermentation process described above regarding the Av3b production strain, with pH control at pH 6.5. […] To identify the mutant with proteolytic resistance, the mutant strains were grown under the same fermentation conditions as Av3b, and samples were taken throughout the fermentation process. The samples taken at 140 hour of fermentation process were analyzed in rpHPLC.
Regarding “KSCCPCYWGGCPWGQNCYPEGCSGGV (ends and bridges not checked; cysteine pairing not given here) [Av3bM146]”, the “Degradation?” value is listed as “Yes”.

Regarding KSCCPCYWGGCPWGQNCYPEGCSGPKG [Av3bM148], the “Degradation?” value is reported as “No”.

On to “KSCCPCYWGGCPWGQNCYPEGCSGPH (ends and bridges not checked; cysteine pairing not given here) [Av3bM104]”, for which the “Degradation?” value was “Yes”.

KSCCPCYWGGCPWGQNCYPEGCSGPKVI [Av3bM168]: the “Degradation?” value is given as “Yes”.

Take “KSCCPCYWGGCPWGQNCYPEGCSGPD (ends and bridges not checked; cysteine pairing not given here) [Av3bM100]”: the “Degradation?” value is “Yes”.

Turning to “KSCCPCYWGGCPWGQNCYPEGCTGPG (ends and bridges not checked; cysteine pairing not given here) [Av3bM169]”, the “Degradation?” value is “Yes”.

For “KSCCPCYWGGCPWGQNCYPEGCSGPN (ends and bridges not checked; cysteine pairing not given here) [Av3bM99]”, the “Degradation?” value is “Yes”.

“KSCCPCYWGGCPWGQNCYPEGCDGPG (ends and bridges not checked; cysteine pairing not given here) [Av3bM171]”: the “Degradation?” value is “Yes”.

As for “KSCCPCYWGGCPWGQNCYPEGCDGPT (ends and bridges not checked; cysteine pairing not given here) [Av3bM157]”, the “Degradation?” value is reported as “Yes”.

With “KSCCPCYWGGCPWGQNCYPEGCDGPA (ends and bridges not checked; cysteine pairing not given here) [Av3bM156]”, the “Degradation?” value is given as “Yes”.

With “KSCCPCYWGGCPWGQNCYPEGCDGP (ends and bridges not checked; cysteine pairing not given here) [Av3bM172]”, the “Degradation?” value was “Yes”.

For the sequence “KSCCPCYWGGCPWGQNCYPEGCSGPT (ends and bridges not checked; cysteine pairing not given here) [Av3bM111]”, the “Degradation?” value is reported as “Yes”.

As to “KSCCPCYWGGCPWGQNCYPEGCSGPE (ends and bridges not checked; cysteine pairing not given here) [Av3bM101]”, the “Degradation?” value is “Yes”.

Turning to “KSCCPCYWGGCPWGQNCYPEGCSGRV (ends and bridges not checked; cysteine pairing not given here) [Av3bM147]”, the “Degradation?” value was “Yes”.

As for “KSCCPCYWGGCPWGQNCYPEGCSGPQ (ends and bridges not checked; cysteine pairing not given here) [Av3bM102]”, the “Degradation?” value is on record as “Yes”.

For “KSCCPCYWGGCPWGQNCYPEGCSGPR (ends and bridges not checked; cysteine pairing not given here) [Av3bM98]”, the “Degradation?” value is “No”.

As for “KSCCPCYWGGCPWGQNCYPEGCSGPA (ends and bridges not checked; cysteine pairing not given here) [Av3bM97]”, the “Degradation?” value is “Yes”.

Still in this series, the particulars now being: production strain fermentation at pH 6.5, rpHPLC.
Regarding KSCCPCYWGGCPWGQNCYPEGCSGPKG [Av3bM148], the “degradation product during fermentation (HPLC)” value was “did not show any degradation product; also recorded: without apparent degradation products”.

With “KSCCPCYWGGCPWGQNCYPEGCSGPR (ends and bridges not checked; cysteine pairing not given here) [Av3bM98]”, the “degradation product during fermentation (HPLC)” value is “did not show any degradation product; also recorded: no degradation product”.
